T1: Murine CXCR2 (Mus musculus, UniProt P35343)
T1 construct: expressed in transfected cells
T1 sequence (P35343 1-359): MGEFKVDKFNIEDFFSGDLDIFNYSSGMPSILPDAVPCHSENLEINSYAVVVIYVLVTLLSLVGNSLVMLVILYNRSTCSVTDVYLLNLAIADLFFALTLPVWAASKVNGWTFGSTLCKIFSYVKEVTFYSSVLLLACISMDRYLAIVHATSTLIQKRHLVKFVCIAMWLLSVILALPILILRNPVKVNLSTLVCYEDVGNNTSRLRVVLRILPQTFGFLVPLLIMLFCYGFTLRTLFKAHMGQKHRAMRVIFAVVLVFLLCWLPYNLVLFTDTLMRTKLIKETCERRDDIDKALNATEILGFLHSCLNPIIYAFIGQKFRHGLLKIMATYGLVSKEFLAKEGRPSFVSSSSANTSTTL

T2: Human CXCR2 (Homo sapiens, UniProt P25025)
T2 sequence (P25025 1-360): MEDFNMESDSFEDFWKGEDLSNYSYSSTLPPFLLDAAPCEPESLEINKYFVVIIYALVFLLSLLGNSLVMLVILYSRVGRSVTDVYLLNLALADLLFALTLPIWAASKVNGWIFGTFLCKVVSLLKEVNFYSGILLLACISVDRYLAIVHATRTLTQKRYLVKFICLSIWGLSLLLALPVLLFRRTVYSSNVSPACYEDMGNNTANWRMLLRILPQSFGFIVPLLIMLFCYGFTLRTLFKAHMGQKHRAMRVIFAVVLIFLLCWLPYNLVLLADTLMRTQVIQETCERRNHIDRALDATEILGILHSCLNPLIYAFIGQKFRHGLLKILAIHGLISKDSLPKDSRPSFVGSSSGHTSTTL


Key:
Murine CXCR2 = molecular target: T1, Murine CXCR2; assay: cELISA of hybridoma supernatants on cells transfected with murine CXCR2; format: binding; details: hybridoma supernatant; fluorescence units relative to positive control (100%)
Human CXCR2 [1] = molecular target: T2, Human CXCR2; assay: cELISA of hybridoma supernatants on cells transfected with human CXCR2; format: binding; design: host or cells: Expi293F cells, vector pTT5; details: hybridoma supernatant; fluorescence units relative to positive control (100%)
Experimental: To generate hybridomas which produced monoclonal antibodies to human CXCR2, splenocytes and/or lymph node cells from animals with the highest anti-CXCR2 titres were isolated and fused to mouse myeloma cells (ATCC, CRL-1580). Cells were plated at approximately 1×10^5 cells/mL in flat bottom microtiter plates, followed by a two week incubation in selective medium (10% FCS and 1×HAT (Sigma)). Hybridomas were expanded by serial passage through four media changes in 96-well plates (96-well stages 1 to 4), then, where required, expanded into T25 and T75 flasks. […] Bound antibodies were detected using a goat anti-rat IgG-HRP (Southern Biotech, #3030-05) secondary antibody.
A panel of hybridomas was generated using lymph nodes and spleen cells from the transgenic rats engineered to express human variable region sequences. A cellular ELISA (cELISA) was used to detect human CXCR2 binding activity in supernatants taken during the expansion process for the hybridomas (Table 5). Hybridomas that retained expression of antibodies that bound CXCR2 after several passages were selected for DNA sequencing.

Human CXCR2 [2] = molecular target: T2, Human CXCR2; assay: Tango CXCR2-bla U2OS cell-based β-arrestin recruitment assay; design: The beta-arrestin/TEV protease fusion and the beta-lactamase reporter are separate parts of the cell line; details: CXCL1 or CXCL8 as agonist
Excerpt: Cells were thawed, propagated, cultured and frozen according to the manufacturer's directions.
Preparation of Tango™ CXCR2-bla U2OS cells for use in cell-based assays: The manufacturer's protocol was altered to make use of 96-well plates instead of 384-well plates. Briefly, dividing cells were harvested one day prior to use. Cells were harvested and resuspended in assay medium (100% FreeStyle™ Expression Medium; Life Technologies; Cat #12338-018) at a viable cell density of 312,500 cells/mL. 128 μL of cell suspension was added per well in 96-well black-walled, clear bottom tissue culture-treated plates. Cells were incubated for 16-20 hrs at 37° C. in an atmosphere of 5% CO2 prior to use in assays.
Tango™ assay procedure: Assays were set up and run as described in the manufacturer's protocol. For antagonist assays, agonists were used at concentrations in the EC50-EC80 range. Assays were read using a FlexStation® 3 (Molecular Devices) fluorescence plate reader configured with the parameters given in Table 4. The blue/green emission ratio for each well was calculated by dividing the blue emission values by the green emission values. All inhibition curves were fitted using a four-parameter dose-response using GraphPad Prism™ (Version 7.01).
The Human CXCR2 Tango™ cell line was used to assess the ability of antibody BKO-4A8-101c to inhibit β-arrestin recruitment to agonist-activated CXCR2. All human ELR+ chemokine CXCR2 ligands were tested in antagonist dose response assays using calculated EC50 values of agonist.
The commercially available reporter cell line Tango™ CXCR2-bla U2OS (ThermoFisher Scientific) was used to assess the ability of the anti-CXCR2 antibodies to inhibit β-arrestin recruitment to agonist-activated CXCR2. Agonists were provided at their assay EC50 concentration for antagonist assays.

Row | Murine CXCR2 % Positive (Murine CXCR2) [%] | Human CXCR2 % Positive (Human CXCR2 [1]) [%] | potency compared to the parental antibody (Human CXCR2 [2]) | Molecule
1 | 4 | 89 |  | BKO-10G10: VH SEQ ID NO: 51, VL SEQ ID NO: 52 (antibody, V domains shown, BKO_10G10_VH; BKO_10G10_VL) VH: QLQLQESGPGLVKPSETLSLTCTVSGGSIRRSSYYWGWIRQPPGKGLEWIGSFYNSGNTYYKPSLKSRVAISVDTPKNQFSLKLSSVTAADTAVYYCARGYSSGGFDPWGQGTLVTVSS VL: QSALTQPASVSGSPGQSITISCTGTSSDVGGYNYVSWCQQHPGKAPKIMIFDVSNRPSGVSNRFSGSKSGNTASLTISGLQAEDEADYYCSSYTSSSTWVFGGGTRLTVL
2 | 7 | 118 |  | BKO-4F10: VH SEQ ID NO: 19, VL SEQ ID NO: 20 (antibody, V domains shown, BKO_4F10_VH; BKO_4F10_VL) VH: QVQLVQSGAEVKKPGASVKVSCKASGYTFTGYYIHWVRQAPGQGLEWMGRFNPNNGGTNYAQRFQGRVTMTRDTSISTAYMELSRLRSDDTAVYYCARGPTIRLWFDNWFDSWGQGTLVTVSS VL: QSALTQPASVSGSPGQSITISCTGTSSDVGGYNYVSWYQQHPGKAPKLMIYDVSNRPSGISNRFSGSKSGNTASLTISGLQAEDEADYYCSSYTSSSTWVFGGGTKLTVL
3 | 8 | 81 |  | BKO-8H10: VH SEQ ID NO: 43, VL SEQ ID NO: 44 (antibody, V domains shown, BKO_8H10_VH; BKO_8H10_VL) VH: QVQLVQSGAEVKKPGASVKVSCKASGYTFTGYYIHWVRQAPGQGLEWMGRIKPDSGGTNYAQKFQGRVTMTRDTSITTAYMELSRLRSDDTAVYYCARGGSGWDYWGQGTLVTVSS VL: QSALTQPPSASGSPGQSVTISFTGTSRDVGDYNYVSWYQQHPGKAPKLMIYEVNKRPSGVPDRFSGSKSGNTASLTVSGLQAEDEADYYCSSYAGSNTYVFGTGTKVTVL
4 |  |  | reduced potency | 103c: VH SEQ ID NO: 163, VL SEQ ID NO: 110 (antibody, V domains shown, 4A8 VH Variant 103 M34Q_A40P_R53S_R55G_N56S_ R75K; 4A8 VL variant c D41G_N52S_N94S) VH: EVQLLESGGGLVQPGGSLRLSCAASGFTFSSSTQSWVRQPPGKGLEWVSAISGSGGSTYYADSVKGRFTISRDNSKNTLYLQMNSLRAEDTAVYYCAIQMGYWGQGILVTVSS VL: QSALTQPPSASGSPGQSVTISCIGTSSDVGGYNYVSWYQQHPGKAPKLMIYEVSKRPSGVPDRFSGSKSGNTASLTVSGLQAEDEADYYCSSYAGSNNFGVFGGGTKLTVL
5 |  |  | reduced potency | 104c: VH SEQ ID NO: 164, VL SEQ ID NO: 110 (antibody, V domains shown, 4A8 VH Variant 104 M34Q_A40P_R53S_R55G_N56S_ R75K_M96K; 4A8 VL variant c D41G_N52S_N94S) VH: EVQLLESGGGLVQPGGSLRLSCAASGFTFSSSTQSWVRQPPGKGLEWVSAISGSGGSTYYADSVKGRFTISRDNSKNTLYLQMNSLRAEDTAVYYCAIQKGYWGQGILVTVSS VL: QSALTQPPSASGSPGQSVTISCIGTSSDVGGYNYVSWYQQHPGKAPKLMIYEVSKRPSGVPDRFSGSKSGNTASLTVSGLQAEDEADYYCSSYAGSNNFGVFGGGTKLTVL
6 | 7 | 100 |  | BKO-2D8: VH SEQ ID NO: 9, VL SEQ ID NO: 10 (antibody, V domains shown, BKO_2D8_VH; BKO_2D8_VL) VH: EVQLLESGGGLVQPGGSLRLSCAASGYTFTSSTMSWVRQAPGKGLEWVTAISGRGGRTYYADSVKGRFTISRDNSKNTLYLQMNSLRAEDTAVYYCAIQLGNWGQGILVTVSS VL: QSALTQPPSASGSPGQSVTISCTGTSSDIGGYNYVSWYQQHPGKAPKLVIYEVNMRPSGVPARFSGSKSGNTASLTVSGLQAEDEADYYCSSYAGNDNFGVFGGGTKLSVL
7 | 7 | 67 |  | BKO-1D1: VH SEQ ID NO: 5, VL SEQ ID NO: 6 (antibody, V domains shown, BKO_1D1_VH; BKO_1D1_VL) VH: EVQLLESGGGLVQPGGSLRLSCAASKLTFKNSAMSWVRQAPGKGLEWVSAITGSGGRTYYADSVKGRFTISRDNSKNTLYLQMNSLRAEDTAIYYCAIQMGYWGQGILVTVSS VL: QSALTQPPSASGSPGQSVTISCTGTSSDVGGYNYVSWYQQHPGKAPKLMIYEVNKRPSGVPARFSGSKSGNTASLTVSGLQAEDEADYYCSSYAGSNNFGVFGGGTKLTVL
8 | 42 | 86 |  | BKO-3F4: VH SEQ ID NO: 15, VL SEQ ID NO: 16 (antibody, V domains shown, BKO_3F4_VH; BKO_3F4_L11_A11_VL) VH: EVQLLESGGGLVQPGGSLRLSCAASGLTFSSYAMSWVRQAPGKGLEWVSAISGSGGKIYYADSVKGRFTISRDNSKNTLYLQMNSLRAEDTAVYYCAIQVGYWGQGTLVTVSS VL: QSALTQPPSASGSPGQSVTMSCTGTSSDVGGYNYVTWYQQHPGKAPKLMIYEVSKRPSGVPARFSGSKSGNTASLTVSGLQAEDEADYYCSSYAGPNNFGVFGGGTKLTVL
9 |  |  | reduced potency | 105c: VH SEQ ID NO: 165, VL SEQ ID NO: 110 (antibody, V domains shown, 4A8 VH Variant 105 M34Q_A40P_R53S_R55G_N56S_ R75K_M96A; 4A8 VL variant c D41G_N52S_N94S) VH: EVQLLESGGGLVQPGGSLRLSCAASGFTFSSSTQSWVRQPPGKGLEWVSAISGSGGSTYYADSVKGRFTISRDNSKNTLYLQMNSLRAEDTAVYYCAIQAGYWGQGILVTVSS VL: QSALTQPPSASGSPGQSVTISCIGTSSDVGGYNYVSWYQQHPGKAPKLMIYEVSKRPSGVPDRFSGSKSGNTASLTVSGLQAEDEADYYCSSYAGSNNFGVFGGGTKLTVL
10 | 8 | 124 |  | BKO-9A8: VH SEQ ID NO: 47, VL SEQ ID NO: 48 (antibody, V domains shown, BKO_9A8_H3_F03_VH; BKO_9A8_L1_H02_VL) VH: EVQLLESGGGLVQTGGSLRLSCAASGFTFSSNTMSWVRQAPGKGLEWVSAISGSGGRTYYVDSVKGRFTISRDNSKNTLYLQMHSLRAEDTAVYYCAIQLGSWGQGILVTVSS VL: QSALTQPPSASGSPGQSVTISCTGTSSDVGAYNYVSWYQQHPGKAPKLMIYEVTKRPSGVPDRFSGSKSGNTASLTVSGLQAEDEADYYCSSYAGNNNFGVFGGGTKLTVL
11 | 4 | 75 |  | BKO-1B10: VH SEQ ID NO: 3, VL SEQ ID NO: 4 (antibody, V domains shown, BKO_1B10_VH; BKO_1B10_VL) VH: QLQLQESGPGLVKPSETLSLTCTVSGGSIRTSSYYWGWIRQPPGKGLEYIGSIYYSGTTYYNPSLKSRVTMSVDTSKNQFSLKLSSVTAADTAVYYCARHGRVREVPPFDYWGQGTLVTVSS VL: SSELTQDPAVSVALGQTVRITCQGDSLRYYYASWYQQKPGQAPVLVIYDENSRPSGIPDRFSGSSSGNTASLRITGTQAEDEADYYCNSRDTSGNHWAFGGGTKLTVL
